B1: SIX1 (sine oculis homeobox homolog 1): T276A (protein)
parent chain: MSMLPSFGFTQEQVACVCEVLQQGGNLERLGRFLWSLPACDHLHKNESVLKAKAVVAFHRGNFRELYKILESHQFSPHNHPKLQQLWLKAHYVEAEKLRGRPLGAVGKYRVRRKFPLPRTIWDGEETSYCFKEKSRGVLREWYAHNPYPSPREKRELAEATGLTTTQVSNWFKNRRQRDRAAEAKERENTENNNSSSNKQNQLSPLEGGKPLMSSSEEEFSPPQSPDQNSVLLLQGNMGHARSSNYSLPGLTASQPSHGLQTHQHQLQDSLLGPLTSSLVDLGS
B2: SIX1 (sine oculis homeobox homolog 1): OGT knockdown (protein)
parent chain: B1 parent chain

Key:
[1] = CHX chase western blot (half-life), TMG; conditions: glycan lost; control: wild-type SIX1, TMG-treated
[2] = ubiquitin affinity bead pulldown, SIX1 blot, MG132 and NEM; conditions: glycan lost; control: wild-type SIX1, TMG-treated
[3] = western blot, BEL7402-SIX1KO rescue cells, TMG; conditions: glycan lost; control: wild-type SIX1, TMG-treated
[4] = western blot, BEL7402 and BEL7404 cells; conditions: glycan lost; control: untreated / control lentivirus

Protein | degradation_or_half_life [1] | other: ubiquitination [2] | expression_or_secretion [3] | expression_or_secretion [4]
B1 | decreases | increases | decreases | 
B2 |  |  |  | decreases
